Columns and labels:
[1] = target: IL-13Rα1 ectodomain (amino acids 1-310), biotinylated (human) (UniProt P78552); test: SPR; equilibrium; conditions: ligand
[2] = target: IL-13Rα1 ectodomain (amino acids 1-310), biotinylated (human) (UniProt P78552); test: SPR; kinetic; conditions: ligand

Chain of IL-13Rα1 ectodomain (amino acids 1-310), biotinylated (human) (P78552 other isoform, or with tags, fused parts or gaps): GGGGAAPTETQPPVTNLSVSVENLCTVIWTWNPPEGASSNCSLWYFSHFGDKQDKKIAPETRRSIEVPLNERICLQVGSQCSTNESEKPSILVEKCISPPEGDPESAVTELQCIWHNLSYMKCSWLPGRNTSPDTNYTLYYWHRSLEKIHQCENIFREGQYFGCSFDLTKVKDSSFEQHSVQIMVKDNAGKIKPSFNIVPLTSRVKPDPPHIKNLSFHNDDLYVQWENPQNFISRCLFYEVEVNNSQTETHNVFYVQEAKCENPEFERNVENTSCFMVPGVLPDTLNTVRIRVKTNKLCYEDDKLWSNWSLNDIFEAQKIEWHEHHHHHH

| Substance | Kd [1] | Kd [2] |
| --- | --- | --- |
| IL-13 variant C4 (from UniProt P35225 34-146) | 36000 nM | – |
| IL-13 variant C11 (from UniProt P35225 34-146) | 1600 nM | – |
| wild-type human IL-13 (from UniProt P35225 34-146) | – | 4.38 nM |

Reference: patent publication US20150056162A1
